According to patent publication US20060134122A1, “Peptides of syndecan-1 for inhibition of cancer” (priority 2004, published 2006):

What was measured:
αvβ3 integrin = target: T1, αvβ3 integrin (Homo sapiens, UniProt P05106+P06756); assay: WOW1 Fab binding (activated αvβ3 integrin), MDA-MB-231; assay type: cell-based; details: cells adherent to mAb B-B4, pre-treated with 1 μg/mL mAb 13; GST-mS1ED 20 μM
T1 construct: endogenous in cells; host or cells: MDA-MB-435 (A4) and MDA-MB-231 (A5) human mammary carcinoma cells
Method: FIGS. 2A-C—Sdc-1 adhesion-mediated cell spreading correlates with αvβ3 integrin. expression and activity. (FIG. 2A) FACS analysis of αvβ3 integrin expression (mAb LM609) in human mammary carcinoma cells against an IgG isotype control. (FIG. 2B) Depicted on split panels are phalloidin-stained MDA-MB-435 (upper half) and MCF-7 (lower half) cells 2 h after plating on wells coated with mAb B-B4 in plating medium alone or medium containing either 30 μg/mL mAb LM609, 1 μg/mL mAb 13 or 20 μM GST-mS1ED. Bar, 50 μm. (FIG. 2C) Untreated MDA-MB-435, MDA-MB-231 and MCF-7 cells (columns 1 and 4) and cells pretreated in suspension with 1 μg/mL mAb 13 (columns 2 and 3) were seeded on wells coated with either mAb B-B4 or COL I in plating medium alone (columns 1, 2 and 4) or medium containing 20 μM GST-mS1ED (column 3). Cells were incubated at 37° C. for 2 h, fixed, permeabilized and stained with WOW1 and an Alexa 488-conjugated secondary. Panel insets are corresponding phase contrast pictures. Bar, 20 μm.
To verify that cell spreading induced upon Sdc-1 ligation correlates with αvβ3activation, the inventors relied upon binding of the ligand-mimetic WOW1 mouse Fab—a probe that detects activated, but unligated αvβ3 integrin. MDA-MB-435 cells adherent to mAb B-B4 display strong binding of WOW1 both centrally and within puncta at the spreading margin of cells (FIG. 2C). […]

[1] = system: Human aortic endothelial cells (HAEC); assay: HAEC spreading on VN; assay type: cell-based; details: 1-10 uM GST-mS1ED
Method: FIG. 13—Human aortic endothelial cells rely on αvβ3 and αvβ5 integrins for spreading on VN. Human aortic endothelial cells (HAECs) were suspended and replated on 10 μg/ml VN in the presence of integrin inhibitory antibodies mAb 13 (specific for β1-containing integrins; this will inhibit the αvβ1 integrin), LM609 (specific for the αvβ3 integrin) and P1F6 (specific for the αvβ5 integrin), or combinations of these antibodies. After 2 hr, the cells were fixed, stained with Alexa488-conjugated phalloidin to aid in visualization, and observed by fluorescence microscopy to document integrin-dependent spreading. Inhibition of spreading requires simultaneous inhibition of both the αvβ3 and αvβ5 integrins.
FIG. 15—αvβ3 and αvβ5 integrin-mediated spreading of human aortic endothelial cells on VN is disrupted by recombinant syndecan-1 ectodomain fusion protein. HAECs are plated on VN in the presence of no competitor, 1-10 uM GST-mS1ED (recombinant mouse syndecan-1 ectodomain expressed as a fusion protein with GST) or GST alone.
FIG. 16—Inhibition of HAEC spreading on VN by silencing of Sdc-1. HAECs were transfected with a range of concentrations of siRNA specific for human Sdc1 (hS1), which achieves 80-88% silencing at 100-200 nM, as shown by flow cytometry using human Sdc-1 mAb B-B4. The cells treated with 200 nM siRNA were also plated on VN for 2 hr and display a 60% reduction in cell spreading. […]

[2] = system: MCF-7 human carcinoma cells; assay: Cell spreading assay, MCF-7; assay type: cell-based; details: 10 μg/mL VN, 2 h; LM609 30 μg/mL; mAb 13 25 μg/mL; GST-mS1ED 20 μM
Method: FIG. 3—MDA-MB-435, but not MCF-7, human carcinoma cells display functional coupling of Sdc-1 and αvβ3 integrins on VN. Depicted are phalloidin-stained cells 2 h after plating on wells coated with 10 μg/mL VN (upper half) or FN (lower half) in plating medium alone or medium containing either 30 μg/mL mAb LM609, 25 μg/mL mAb 13, 20 μM GST-mS1ED or -mS4ED. Bar, 50 μm.
MDA-MB-435, but not MCF-7, human carcinoma cells display functional coupling of Sdc-1 and αvβ3 integrin on VN. To test whether activation of αvβ3 integrin activation on matrix is also functionally coupled to Sdc-1, MDA-MB-435 and MCF-7 cells were plated on either VN or FN (FIG. 3). MDA-MB-435 cells spread on VN and require αvβ3 integrins for this activity as spreading is blocked by mAb LM609. Although the MCF-7 cells spread on VN, this spreading is unaffected by LM609; these cells rely instead on αvβ1 integrins as spreading is blocked by either mAb 13 (FIG. 3) or αv-specific mAb M9 (unpublished data; de Vries et al., 1986). Neither cell type utilizes αvβ3 to respond to FN, rather both utilize […] that are blocked by either mAb 13 (FIG. 3) or mAb 16 (unpublished data).
To test whether GST-mS1ED specifically blocks αvβ3 integrin-dependent spreading or acts as a general inhibitor to all αv integrin heterodimers, MDA-MB-435 and MCF-7 cells were plated on VN in the presence of 20 μM GST-mS1ED. […]

[3] = system: MDA-MB-231 human mammary carcinoma cells; details: no integrin ligand; Beauvais and Rapraeger, 2003; cited from earlier work

T1 sequence (P06756 31-889 limits assumed): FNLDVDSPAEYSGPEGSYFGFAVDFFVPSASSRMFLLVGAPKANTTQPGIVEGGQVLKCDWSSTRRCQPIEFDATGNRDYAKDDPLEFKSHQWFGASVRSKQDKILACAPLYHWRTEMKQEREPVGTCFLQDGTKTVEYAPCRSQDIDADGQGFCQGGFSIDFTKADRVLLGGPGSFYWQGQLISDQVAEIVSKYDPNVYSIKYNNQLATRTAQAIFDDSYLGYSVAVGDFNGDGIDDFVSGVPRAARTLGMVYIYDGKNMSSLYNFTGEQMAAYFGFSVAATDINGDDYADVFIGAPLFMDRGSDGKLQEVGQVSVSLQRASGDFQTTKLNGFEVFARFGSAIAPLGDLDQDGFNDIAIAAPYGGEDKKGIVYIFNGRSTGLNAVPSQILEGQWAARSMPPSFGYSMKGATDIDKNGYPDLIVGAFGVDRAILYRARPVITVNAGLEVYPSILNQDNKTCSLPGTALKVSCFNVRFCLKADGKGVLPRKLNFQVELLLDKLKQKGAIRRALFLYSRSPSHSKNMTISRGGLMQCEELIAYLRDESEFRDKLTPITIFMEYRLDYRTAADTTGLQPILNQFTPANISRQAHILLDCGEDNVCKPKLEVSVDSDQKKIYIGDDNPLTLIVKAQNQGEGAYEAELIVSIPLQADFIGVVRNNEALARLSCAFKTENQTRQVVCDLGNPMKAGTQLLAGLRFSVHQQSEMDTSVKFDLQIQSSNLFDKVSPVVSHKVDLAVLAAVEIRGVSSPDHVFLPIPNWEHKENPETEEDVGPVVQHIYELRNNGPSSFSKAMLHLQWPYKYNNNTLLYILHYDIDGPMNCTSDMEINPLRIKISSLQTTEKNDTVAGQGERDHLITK
T1 sequence (P06756 891-1048 limits assumed): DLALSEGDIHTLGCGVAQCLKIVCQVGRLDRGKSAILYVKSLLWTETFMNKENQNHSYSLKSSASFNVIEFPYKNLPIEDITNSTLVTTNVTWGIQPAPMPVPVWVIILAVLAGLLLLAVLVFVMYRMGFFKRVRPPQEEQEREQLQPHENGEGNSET
T1 sequence (P05106 27-788): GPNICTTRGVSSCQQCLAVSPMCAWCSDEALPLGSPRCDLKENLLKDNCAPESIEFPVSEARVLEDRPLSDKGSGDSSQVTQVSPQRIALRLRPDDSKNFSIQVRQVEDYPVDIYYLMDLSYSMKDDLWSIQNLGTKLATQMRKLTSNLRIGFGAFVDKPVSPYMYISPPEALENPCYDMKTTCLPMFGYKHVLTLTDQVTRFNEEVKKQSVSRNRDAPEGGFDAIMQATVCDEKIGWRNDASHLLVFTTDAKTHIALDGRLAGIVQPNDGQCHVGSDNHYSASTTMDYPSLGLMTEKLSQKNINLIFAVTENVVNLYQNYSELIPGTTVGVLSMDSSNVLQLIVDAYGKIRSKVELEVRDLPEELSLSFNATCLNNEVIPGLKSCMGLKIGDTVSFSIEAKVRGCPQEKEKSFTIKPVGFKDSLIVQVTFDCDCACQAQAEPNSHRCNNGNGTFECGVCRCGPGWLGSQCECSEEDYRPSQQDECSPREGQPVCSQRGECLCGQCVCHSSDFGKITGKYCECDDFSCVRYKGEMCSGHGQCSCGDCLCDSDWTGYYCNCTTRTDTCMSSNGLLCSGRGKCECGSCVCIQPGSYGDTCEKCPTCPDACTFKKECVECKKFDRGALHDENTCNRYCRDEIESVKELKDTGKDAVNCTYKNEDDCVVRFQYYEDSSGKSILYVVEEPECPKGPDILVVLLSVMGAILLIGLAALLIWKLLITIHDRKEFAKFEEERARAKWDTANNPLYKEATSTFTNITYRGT

WOW1 binding (αvβ3 activation) (αvβ3 integrin): WOW1 staining is also lost
B1: GST-mS1ED: recombinant mouse syndecan-1 ectodomain expressed as a fusion protein with GST (protein)
chain: QIVAVNVPPEDQDGSGDDSDNFSGSGTGALPDTLSRQTPSTWKDVWLLTATPTAPEPTSSNTETAFTSVLPAGEKPEEGEPVLHVEAEPGFTARDKEKEVTTRPRETVQLPITQRASTVRVTTAQAAVTSHPHGGMQPGLHETSAPTAPGQPDHQPPRVEGGGTSVIKEVVEDGTANQLPAGEGSGEQDFTFETSGENTAVAAVEPGLRNQPPVDEGATGASQSLLDRKEVLG
modifications: left off: a dimerising Fc or GST
notes: recombinant mouse syndecan-1 ectodomain expressed as a fusion protein with GST
αvβ3 and αvβ5 integrin-mediated spreading on VN [1]: disrupted
cell spreading on VN [2]: Only the MDA-MB-435 cells fail to spread
collaboration between Sdc-1 and αvβ3 integrins in cells adherent to Sdc-1-specific antibody [3]: disrupted
